Reference: US5585345

Legend:
[1] = target: human glycoprotein hormone alpha subunit (human) (UniProt P01215); test: co-expression with alpha subunit in CHO cells, 35S-cysteine pulse-chase, immunoprecipitation, SDS-PAGE
[2] = target: human glycoprotein hormone alpha subunit (human) (UniProt P01215); test: co-expression with alpha subunit in CHO cells, pulse-chase, immunoprecipitation; monoglycosylated form recovered in the medium
[3] = target: human glycoprotein hormone alpha subunit (human) (UniProt P01215); test: co-expression with alpha subunit in CHO cells, pulse-chase, immunoprecipitation; recovery of diglycosylated form, estimated

Dimer Recovery (%) [1] | Dimer Recovery (%) [2] | Dimer Recovery (%) [3] | Substance
80% | – | – | LH(1-114)
30% | – | – | LHthr^15
84% | – | – | LHthr^42 (1-114)
> 95% | – | – | human chorionic gonadotropin beta subunit
42% | – | – | human luteinizing hormone beta subunit

Further lines, the substance ahead of its results:

Substance | Dimer Recovery (%) [1] | Dimer Recovery (%) [2] | Dimer Recovery (%) [3]
CG(1-114) | 90% | – | –
LHarg^8 | 32% | – | –
LHarg^8 (1-114) | 91% | – | –
LHarg^8 arg^10 (1-114) | 95% | – | –
LHasn^58 (1-114) | > 95% | – | –
LHthr^15 (1-114) | – | 40% | > 95%
